Data on one protein can be found in article PMC5467530.

Substrate in this data set: O=c1[nH]cnc2c([C@@H]3O[C@H](COP(=O)(O)O)[C@@H](O)[C@H]3O)n[nH]c12
Put plainly: pyruvate kinase / lactate dehydrogenase coupled assay, NADH oxidation by UV. In kind it is biochemical, Streptomyces kaniharaensis. The conditions noted are these: 2.5 mM L-aspartate, 0.125 mM GTP.

B1: ForA (Streptomyces kaniharaensis) (protein)
chain: MLKAIVGLNWGDEGKGRMVDNLSAEADYTVRYHGGSNAGHTIHTDQGKFKLHSLPSSVLHPTVTGVLGPGMTVDVEGFLAEFEALREHGVTADRLLVADAASVCFPFHRDLDGAEEERLSDGRYGSTRRGISPAYGDRVMKKTLLVRELFDRENLPARLAAVLDWANERIVRIYGGAPLSLDEVTRWAADVAARLEPHVVDATALLGKALDDGATVIAEGQLGALKDLYYGIYPFTTSSTCLAGHAPVGIGVPWARVDRTIGVTKAFSSCVGAGPFVTEFDEERADRLRRQWGEYGSTTNRPRRLGAFDAVATRYGVRVQGADEVAITNLDQLSGTGELDLCVAYERAGRTVREFSPRPAELAASTPVHETLSGWDEDISGVRTYEQLPAGAREYVEAIQELLGVPVRHVSVGSHRDALIEIK
As usually defined, the Km is the substrate concentration at which the rate is half of its maximum. By kcat is commonly meant the number of substrate molecules converted per active site and unit of time at saturation. As to B1, the Km is 74 ± 25 µM and the kcat is 0.3 ± 0.033 s⁻¹.
